Results published in the supplement of paper PMC11246515.
± gives the standard deviation of the averaged measurements.

Test: total protein half-life in vivo (active degradation + dilution); higher = more stable protein
[1] = E. coli NCM3722 delta-clpP delta-lon delta-hslV, growth: N-lim chemostat, doubling time 6 h
[2] = E. coli NCM3722 delta-clpP, growth: N-lim chemostat, doubling time 6 h
[3] = E. coli NCM3722 delta-hslV, growth: N-lim chemostat, doubling time 6 h
[4] = E. coli NCM3722 delta-lon, growth: N-lim chemostat, doubling time 6 h
[5] = E. coli NCM3722 delta-smpB, growth: N-lim chemostat, doubling time 6 h
[6] = wild type E. coli NCM3722, growth: C-lim chemostat, doubling time 3 h
[7] = wild type E. coli NCM3722, growth: C-lim chemostat, doubling time 6 h
[8] = wild type E. coli NCM3722, growth: C-lim chemostat, doubling time 12 h
[9] = wild type E. coli NCM3722, growth: N-lim chemostat, doubling time 6 h
[10] = wild type E. coli NCM3722, growth: N-lim chemostat, doubling time 12 h
[11] = wild type E. coli NCM3722, growth: P-lim chemostat, doubling time 6 h
[12] = wild type E. coli NCM3722, growth: P-lim chemostat, doubling time 12 h

| Sequence | total protein half-life in vivo [1] [h] | total protein half-life in vivo [2] [h] | total protein half-life in vivo [3] [h] | total protein half-life in vivo [4] [h] | total protein half-life in vivo [5] [h] | total protein half-life in vivo [6] [h] | total protein half-life in vivo [7] [h] | total protein half-life in vivo [8] [h] | total protein half-life in vivo [9] [h] | total protein half-life in vivo [10] [h] | total protein half-life in vivo [11] [h] | total protein half-life in vivo [12] [h] |
| --- | --- | --- | --- | --- | --- | --- | --- | --- | --- | --- | --- | --- |
| MVEDILAPGLRVVFCGINPGLSSAGTGFPFAHPANRFWKVIYQAGFTDRQLKPQEAQHLLDYRCGVTKLVDRPTVQANEVSKQELHAGGRKLIEKIEDYQPQALAILGKQAYEQGFSQRGAQWGKQTLTIGSTQIWVLPNPSGLSRVSLEKLVEAYRELDQALVVRGR [P0A9H1] | 5.34 ± 0.42 | 5.22 ± 0.42 | 6.31 ± 1.5 | 5.677 ± 0.045 | 4.88 ± 0.35 | 3.1514 ± 0.00069 | 5.79 ± 0.27 | 12.1 ± 1.1 | 5.18 ± 0.47 | 8.94 ± 0.12 | 5.74 ± 0.3 | 11.7 ± 0.27 |
| MVELKEPLATLWRGKDAFAEVKKLNGEVFRELETRRTLRFELSGKSYFLKWHKGTTLKEIIKNLLSLRMPVLGADREWHAIHRLSDVGVDTMKGIGFGEKGLNPLTRASFIITEDLTPTISLEDYCADWAVNPPDIRVKRMLIARVATMVRKMHTAGINHRDCYICHFLLHLPFTGREDELKISVIDLHRAQIRAKVPRRWRDKDLIGLYFSSMNIGLTQRDIWRFMKVYFGMPLRKILSLEQNLLNMASVKAERIKERTQRKGL | 6.12 ± 0.57 | 6.03 ± 0.16 | 6.41 ± 0.56 | 5.58 ± 0.54 | 5.92 ± 0.2 | 3.02 ± 0.17 | 6.68 ± 0.36 | 11.5 ± 0.34 | 5.76 ± 0.48 | 11.4 ± 1.2 | 5.94 ± 0.41 | 12 ± 0.44 |
| MVFRIASSPYTHNQRQTSRIMLLVLLAAVPGIAAQLWFFGWGTLVQILLASVSALLAEALVLKLRKQSVAATLKDNSALLTGLLLAVSIPPLAPWWMVVLGTVFAVIIAKQLYGGLGQNPFNPAMIGYVVLLISFPVQMTSWLPPHEIAVNIPGFIDAIQVIFSGHTASGGDMNTLRLGIDGISQATPLDTFKTSVRAGHSVEQIMQYPIYSGILAGAGWQWVNLAWLAGGVWLLWQKAIRWHIPLSFLVTLALCAMLGWLFSPETLAAPQIHLLSGATMLGAFFILTDPVTASTTNRGRLIFGALAGLLVWLIRSFGGYPDGVAFAVLLANITVPLIDYYTRPRVYGHRKG | 7.06 | – | – | – | – | > 4 | – | 13 ± 0.93 | 6.53 | 9.64 | – | 13 ± 1.1 |
| MVINCAFIGFGKSTTRYHLPYVLNRKDSWHVAHIFRRHAKPEEQAPIYSHIHFTSDLDEVLNDPDVKLVVVCTHADSHFEYAKRALEAGKNVLVEKPFTPTLAQAKELFALAKSKGLTVTPYQNRRFDSCFLTAKKAIESGKLGEIVEVESHFDYYRPVAETKPGLPQDGAFYGLGVHTMDQIISLFGRPDHVAYDIRSLRNKANPDDTFEAQLFYGDLKAIVKTSHLVKIDYPKFIVHGKKGSFIKYGIDQQETSLKANIMPGEPGFAADDSVGVLEYVNDEGVTVREEMKPEMGDYGRVYDALYQTITHGAPNYVKESEVLTNLEILERGFEQASPSTVTLAK | 5.85 ± 0.38 | 4.79 ± 0.2 | 5.38 ± 0.92 | 4.78 ± 0.095 | 4.91 ± 0.26 | 3.04 ± 0.12 | 5.58 ± 0.54 | 11.6 ± 0.32 | 4.75 ± 0.06 | 8.63 ± 0.17 | 5.842 ± 0.057 | 12.3 ± 1.1 |
| MVISIRRSRHEEGEELVAIWCRSVDATHDFLSAEYRTELEDLVRSFLPEAPLWVAVNERDQPVGFMLLSGQHMDALFIDPDVRGCGVGRVLVEHALSMAPELTTNVNEQNEQAVGFYKKVGFKVTGRSEVDDLGKPYPLLNLAYVGA | 3.78 | – | – | – | – | – | – | – | – | – | – | – |
| MVKERKTELVEGFRHSVPYINTHRGKTFVIMLGGEAIEHENFSSIVNDIGLLHSLGIRLVVVYGARPQIDANLAAHHHEPLYHKNIRVTDAKTLELVKQAAGTLQLDITARLSMSLNNTPLQGAHINVVSGNFIIAQPLGVDDGVDYCHSGRIRRIDEDAIHRQLDSGAIVLMGPVAVSVTGESFNLTSEEIATQLAIKLKAEKMIGFCSSQGVTNDDGDIVSELFPNEAQARVEAQEEKGDYNSGTVRFLRGAVKACRSGVRRCHLISYQEDGALLQELFSRDGIGTQIVMESAEQIRRATINDIGGILELIRPLEQQGILVRRSREQLEMEIDKFTIIQRDNTTIACAALYPFPEEKIGEMACVAVHPDYRSSSRGEVLLERIAAQAKQSGLSKLFVLTTRSIHWFQERGFTPVDIDLLPESKKQLYNYQRKSKVLMADLG [P0A6C5] | 4.95 ± 0.5 | 3.02 ± 0.23 | 2.23 ± 0.15 | 3.628 ± 0.028 | 1.13 ± 0.066 | 1.99 ± 0.036 | 3.29 ± 0.41 | 5.24 ± 0.21 | 2.59 ± 0.25 | 4.01 ± 0.54 | 4.56 ± 0.38 | 8.35 ± 0.32 |
| MVKKAIVTAMAVISLFTLMGCNNRAEVDTLSPAQAAELKPMPQSWRGVLPCADCEGIETSLFLEKDGTWVMNERYLGAREEPSSFASYGTWARTADKLVLTDSKGEKSYYRAKGDALEMLDREGNPIESQFNYTLEAAQSSLPMTPMTLRGMYFYMADAATFTDCATGKRFMVANNAELERSYLAARGHSEKPVLLSVEGHFTLEGNPDTGAPTKVLAPDTAGKFYPNQDCSSLGQ | 5.34 ± 0.088 | 5.68 ± 0.11 | 5.99 ± 0.23 | 6.787 ± 0.0084 | 5.976 ± 0.058 | 3.13 ± 0.2 | 6.4 ± 0.79 | 10.7 ± 0.25 | 6.083 ± 0.0085 | 11.5 ± 0.38 | 5.63 ± 0.41 | – |
| MVLQSTRWLALGYFTYFFSYGIFLPFWSVWLKGIGLTPETIGLLLGAGLVARFLGSLLIAPRVSDPSRLISALRVLALLTLLFAVAFWAGAHVAWLMLVMIGFNLFFSPLVPLTDALANTWQKQFPLDYGKVRLWGSVAFVIGSALTGKLVTMFDYRVILALLTLGVASMLLGFLIRPTIQPQGASRQQESTGWSAWLALVRQNWRFLACVCLLQGAHAAYYGFSAIYWQAAGYSASAVGYLWSLGVVAEVIIFALSNKLFRRCSARDMLLISAICGVVRWGIMGATTALPWLIVVQILHCGTFTVCHLAAMRYIAARQGSEVIRLQAVYSAVAMGGSIAIMTVFAGFLYQYLGHGVFWVMALVALPAMFLRPKVVPSC | – | – | – | 6.67 | 4.51 | – | 2.77 | 10.4 ± 0.17 | – | – | – | – |
| MVLWQSDLRVSWRAQWLSLLIHGLVAAVILLMPWPLSYTPLWMVLLSLVVFDCVRSQRRINARQGEIRLLMDGRLRWQGQEWSIVKAPWMIKSGMMLRLRSDGGKRQHLWLAADSMDEAEWRDLRRILLQQETQR | 6.03 ± 0.068 | 5.69 | – | 4.15 ± 0.083 | – | 3.47 | 5.64 ± 1.5 | 6.78 | 5.67 | 9.7 | 3.85 ± 0.56 | 7.57 |
